Source: patent US20050107584A1

What was measured:
[1] = target: human anti-β2GPI mAb ILA-1; assay: competition ELISA, β2GPI-coated plates, 10 µM peptide
human anti-β2GPI mAb G-3 [2] = assay: as above
human anti-β2GPI mAb G-3 [3] = assay: cell-based or functional assay
human anti-β2GPI mAb G-3 [4] = assay: cyto-ELISA on HUVEC coated with 10 µg/ml β2GPI, 10 µM peptide
[5] = target: human anti-β2GPI mAb ILA-3; assay: competition ELISA, β2GPI-coated plates, 10 µM peptide
[6] = target: human anti-β2GPI mAb ILA-3; assay: cell-based or functional assay
[7] = target: human anti-β2GPI mAb ILA-3; assay: cyto-ELISA on HUVEC coated with 10 µg/ml β2GPI, 10 µM peptide
[8] = target: human anti-β2GPI mAb ILA-1; assay: cell-based or functional assay
[9] = target: human anti-β2GPI mAb ILA-1; assay: competition ELISA, mAb 10 µg/ml preincubated with peptide, β2GPI-coated plates, 10 µM peptide
[10] = target: human anti-β2GPI mAb ILA-1; assay: cyto-ELISA on HUVEC coated with 10 µg/ml β2GPI, 10 µM peptide

% inhibition of ILA-1 mAb binding to β2GPI [1] [%] | % inhibition of G-3 mAb binding to β2GPI (human anti-β2GPI mAb G-3 [2]) [%] | % inhibition of adhesion of U937 monocyte cells to HUVEC (human anti-β2GPI mAb G-3 [3]) [%] | E-selectin expression by HUVEC (ELISA O.D.) (human anti-β2GPI mAb G-3 [3]) [O.D.] | ICAM-1 expression by HUVEC (ELISA O.D.) (human anti-β2GPI mAb G-3 [3]) [O.D.] | VCAM-1 expression by HUVEC (ELISA O.D.) (human anti-β2GPI mAb G-3 [3]) [O.D.] | % inhibition of G-3 mAb binding to HUVEC (human anti-β2GPI mAb G-3 [4]) [%] | % inhibition of ILA-3 mAb binding to β2GPI [5] [%] | % inhibition of adhesion of U937 monocyte cells to HUVEC [6] [%] | E-selectin expression by HUVEC (ELISA O.D.) [6] [O.D.] | % inhibition of ILA-3 mAb binding to HUVEC [7] [%] | % inhibition of adhesion of U937 monocyte cells to HUVEC [8] [%] | E-selectin expression by HUVEC (ELISA O.D.) [8] [O.D.] | ICAM-1 expression by HUVEC (ELISA O.D.) [8] [O.D.] | VCAM-1 expression by HUVEC (ELISA O.D.) [8] [O.D.] | % inhibition of ILA-1 mAb binding to β2GPI [9] [%] | % inhibition of ILA-1 mAb binding to HUVEC [10] [%] | Binder
11 | 98 | 92 | 0.215 | 0.186 | 0.174 | 92 | – | – | – | – | – | – | – | – | – | – | CATLRVYKGG [synthetic peptide C (monomer), Cys Ala Thr Leu Arg Val Tyr Lys Gly Gly]
10 | – | – | – | – | – | – | 77 | 95 | 0.211 | 72 | – | – | – | – | – | – | KDKATFGTHDG [synthetic peptide B (monomer), Lys Asp Lys Ala Thr Phe Gly Thr His Asp Gly]
– | – | – | – | – | – | – | – | – | – | – | 84 | 0.239 | 0.204 | 0.252 | 97 | 95 | NTLKTPRVGG [synthetic peptide A (monomer), Asn Thr Leu Lys Thr Pro Arg Val Gly Gly]
